The record followed here is patent US20150080549A1 (Chugai, published 2015).

T1: biotinylated Interleukin-6 receptor (IL-6R) (human, UniProt P08887 20-344, limits assumed, biotinylated (method of BMC biotechnology, 2008, 8, 41 and Protein Science, 1999, 8, 921-929); site not stated)
T1 construct: also called human IL-6 receptor; hIL-6R
T1 sequence (looked up): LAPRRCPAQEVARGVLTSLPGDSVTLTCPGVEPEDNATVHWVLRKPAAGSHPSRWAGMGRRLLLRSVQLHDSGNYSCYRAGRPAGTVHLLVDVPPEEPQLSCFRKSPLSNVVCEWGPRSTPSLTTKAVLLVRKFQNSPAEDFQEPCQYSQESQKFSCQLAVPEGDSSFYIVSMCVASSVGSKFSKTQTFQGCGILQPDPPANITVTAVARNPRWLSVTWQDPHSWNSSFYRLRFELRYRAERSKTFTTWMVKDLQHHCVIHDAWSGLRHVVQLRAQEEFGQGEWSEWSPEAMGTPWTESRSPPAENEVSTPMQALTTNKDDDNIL

B1: Compound SP859 (peptide)
peptide: APVI[NMeF][Met(O2)]P[NMePhe(3-Cl)]V[Met(O2)]DP[Sar]S-{NH(CH2)2NMe2}
modifications: lactam N-11
notes: Made from Compound SP854 by amidation of the C-terminal carboxylic acid
B2: Compound SP854 (peptide)
peptide: APVI[NMeF][Met(O2)]P[NMePhe(3-Cl)]V[Met(O2)]DP[Sar]S-OH
modifications: lactam N-11
SMILES: CC[C@H](C)[C@@H]1NC(=O)[C@H](C(C)C)NC(=O)[C@@H]2CCCN2C(=O)[C@H](C)NC(=O)C[C@@H](C(=O)N2CCC[C@H]2C(=O)N(C)CC(=O)N[C@@H](CO)C(=O)O)NC(=O)[C@H](CCS(C)(=O)=O)NC(=O)[C@H](C(C)C)NC(=O)[C@H](Cc2cccc(Cl)c2)N(C)C(=O)[C@@H]2CCCN2C(=O)[C@H](CCS(C)(=O)=O)NC(=O)[C@H](Cc2ccccc2)N(C)C1=O
notes: Chemically synthesized, HPLC purified
B3: Compound SP855 (peptide)
peptide: AII[NMeAla(4-thiazolyl)]WP[NMePhe(3-Cl)][Met(O2)][dY][βAla]DP[NMePhe(3-Cl)]S-OH
modifications: lactam N-11
SMILES: CC[C@H](C)[C@@H]1NC(=O)[C@H](C)NC(=O)C[C@@H](C(=O)N2CCC[C@H]2C(=O)N(C)[C@@H](Cc2cccc(Cl)c2)C(=O)N[C@@H](CO)C(=O)O)NC(=O)CCNC(=O)[C@@H](Cc2ccc(O)cc2)NC(=O)[C@H](CCS(C)(=O)=O)NC(=O)[C@H](Cc2cccc(Cl)c2)N(C)C(=O)[C@@H]2CCCN2C(=O)[C@H](Cc2c[nH]c3ccccc23)NC(=O)[C@H](Cc2cscn2)N(C)C(=O)[C@H]([C@@H](C)CC)NC1=O
notes: as for B2
B4: Compound SP856 (peptide)
peptide: [γEtAbu]IVW[NMePhe(3-Cl)][Met(O2)]P[NMePhe(3-Cl)][dY][Met(O2)]D[NMeAla(4-thiazolyl)][NMeA]S-OH
modifications: lactam N-11
SMILES: CC[C@H](C)[C@@H]1NC(=O)CCCN(CC)C(=O)C[C@@H](C(=O)N(C)[C@@H](Cc2cscn2)C(=O)N(C)[C@@H](C)C(=O)N[C@@H](CO)C(=O)O)NC(=O)[C@H](CCS(C)(=O)=O)NC(=O)[C@@H](Cc2ccc(O)cc2)NC(=O)[C@H](Cc2cccc(Cl)c2)N(C)C(=O)[C@@H]2CCCN2C(=O)[C@H](CCS(C)(=O)=O)NC(=O)[C@H](Cc2cccc(Cl)c2)N(C)C(=O)[C@H](Cc2c[nH]c3ccccc23)NC(=O)[C@H](C(C)C)NC1=O
notes: as for B2
B5: SEQ ID NO: PE-13 (IL-6R binder) peptide (peptide)
peptide: APVI[NMeF][Met(O2)]P[NMePhe(3-Cl)]V[Met(O2)]DP[Sar]SGSGSGS-{FlPu(urea)}
modifications: lactam N-11; reading uncertain
notes: Translated in ECL Translation Solution T, cyclized and desulfurized; not isolated; also called translation product of template DNA DME-13
B6: SEQ ID NO: PE-2 (IL-6R binder) peptide (peptide)
peptide: APII[NMeF][Met(O2)]P[NMePhe(3-Cl)][dY]VDSTSGSGSGS-{FlPu(urea)}
modifications: lactam N-11; reading uncertain
notes: Translated in ECL Translation Solution T, cyclized and desulfurized; not isolated; also called translation product of template DNA DME-2
B7: SEQ ID NO: PE-3 (IL-6R binder) peptide (peptide)
peptide: APIIW[NMePhe(3-Cl)][Met(O2)]P[NMePhe(3-Cl)][dY]DV[dY]SGSGSGS-{FlPu(urea)}
modifications: lactam N-11; reading uncertain
notes: Translated in ECL Translation Solution T, cyclized and desulfurized; not isolated; also called translation product of template DNA DME-3
B8: SEQ ID NO: PE-14 (IL-6R binder) peptide (peptide)
peptide: AII[NMeAla(4-thiazolyl)]WP[NMePhe(3-Cl)][Met(O2)][dY][βAla]DP[NMePhe(3-Cl)]SGSGSGS-{FlPu(urea)}
modifications: lactam N-11; reading uncertain
notes: Translated in ECL Translation Solution T, cyclized and desulfurized; not isolated; also called translation product of template DNA DME-14

Starred links: 1 amine or outer side, 2 acyl side, 3 side chain; linkers in the order of their positions; H or OH if unused. Positions of bridges follow the written chain, without caps; N, C: chain ends. Non-standard residues stand in square brackets, D forms with d. γEtAbu = 4-(ethylamino)butanoic acid, CCN(CCCC(=O)[*:2])[*:1]; NMeAla(4-thiazolyl) = CN[C@@H](Cc1cscn1)C(=O)O; NMePhe(3-Cl) = CN[C@@H](Cc1cccc(Cl)c1)C(=O)O; Met(O2) = CS(=O)(=O)CC[C@H](N)C(=O)O; NMeF = CN[C@@H](Cc1ccccc1)C(=O)O; FlPu(urea) = not defined here; NMeA = CN[C@@H](C)C(=O)O; βAla = NCCC(=O)O; Sar = CNCC(=O)O

For orientation: Kd means the concentration at which binding is half-saturated. High values mean a looser complex, low ones a tighter complex.

In the first assay the target is T1, biotinylated Interleukin-6 receptor …. As to the kind of experiment: SPR, Biacore T200, 20 C; biotinylated IL-6R captured on sensor chip CAP, peptide as analyte; KD=koff/kon from curve fitting. The procedure: An SPR experiment for analyzing the interaction between synthetic peptides and IL-6R was conducted using Biacore T200 (GE healthcare) at 20° C. Synthetic peptides were added to the immobilized IL-6R, and the interaction was evaluated.
CAP reagent was immobilized on a Biacore sensor chip, Series S sensor chip CAP (GE healthcare), according to the instructions, and biotinylated IL-6R was further immobilized.
The obtained sensorgrams were analyzed using T200 evaluation software (GE healthcare) or Scrubber2 (Biologic software). First, solvent correction for DMSO and double reference (correction by subtracting sensorgrams of flow cells where IL-6R was not immobilized and sensorgrams in the case where the buffer was added) were carried out. Second, binding rate constants (kₒₙ) and dissociation rate constants (koff) were calculated from curve fitting to the corrected sensorgrams, and KDs were determined by the relational expression KD=koff/kₒₙ.
On the technique in general: Surface plasmon resonance follows binding to a sensor surface in real time, without labels.
With B1, the Kd amounted to 0.55 µM.

Turning to B2, binding was put at a Kd of 1.8 µM.

Take B3: the affinity, expressed as Kd, was 5.3 µM.

Molecule B4 yielded a Kd of 13 µM.

The next assay shares this target. As to the kind of experiment: ECL immunoassay (MSD): biotinylated target on streptavidin plate, translated FlPu(urea)-labelled cyclic peptide (Translation Solution T), anti-fluorescein and SULFO-TAG anti-mouse antibody; no-template control 177. Here is the method:
0.5 μl of a 200 mM EDTA solution (pH 8.0, Nacalai, 14362-24) and 0.5 μl of a 100 mM TCEP solution (pH 6.6) were added to 5 μL of the translation mixture, and the mixture was incubated at 37° C. for 120 minutes to cause cyclization reaction. 11 μL of desulfurization buffer (15 mM cysteine, 36 mM TCEP) was added to the cyclization product, and the mixture was incubated at 42° C. for 1 minutes, after which 4 μL of 1 M VA-044 (Wako, CAS No. 27776-21-2) was added and the mixture was allowed to stand at 42° C. for 1 hour.
Immunoassay was carried out using the above peptide solution for ECL assay. 500 nM biotinylated target protein was added at 10 μL per well to MSD Streptavidin MULTI-ARRAY 384-well plate (Meso Scale Discovery, L25SB-1), and reaction was conducted at room temperature for 1 hour with shaking at 500 rpm to immobilize the target protein. 2% skim milk PBS was added at 50 μL per well, and blocking was carried out by allowing to stand at room temperature for 2 hours. The reaction solution was removed and the plate was washed with PBS containing 0.05% Tween 20 (PBST) three times, after which 10 μL of the peptide solution for ECL assay was added and the plate was shaken at room temperature for 50 minutes at 500 rpm. The reaction solution was removed and the plate was washed with PBST three times, after which 10 μL of IgG Fraction Monoclonal Mouse Anti-Fluorescein (Jackson ImmunoResearch, 200-002-037) diluted to 0.5 μg/mL with 2% skim milk PBS was added, and reaction was conducted at room temperature for 50 minutes with shaking at 500 rpm. The reaction solution was removed and the plate was washed with PBST three times, after which 10 μL of SULFO-TAG Anti-Mouse Antibody (Meso Scale Discovery, R32AC-5) diluted to 1 μg/mL with 2% skim milk PBS was added, and reaction was conducted at room temperature for 50 minutes with shaking at 500 rpm. The reaction solution was removed and the plate was washed with PBST three times, after which 35 μl, of 2× Read Buffer T (Meso Scale Discovery, R92TC-3) was added and measurement was carried out using SECTOR Imager 2400 (Meso Scale Discovery).
Molecule B5 showed an ECL signal of 537000.

B6: the ECL signal amounted to 307000.

As to B7, the ECL signal turned out to be 70000.

The molecule B8 yielded an ECL signal of 45600.
